Measured values reported in US20250326865A1, “C-MET PROTEIN-BINDING PEPTIDE COMPLEX” (PeptiDream Inc., priority 2021, published 2025).
Starred links: 1 amine or outer side, 2 acyl side, 3 side chain; linkers in the order of their positions; H or OH if unused. Positions of bridges follow the written chain, without caps; N, C: chain ends. Non-standard residues stand in square brackets, D forms with d. Chains are numbered I, II in the order given. No end group written: not given here. CO(CH2)2(OCH2CH2)17CO = O=C(CCOCCOCCOCCOCCOCCOCCOCCOCCOCCOCCOCCOCCOCCOCCOCCOCCOCCC(=O)[*:2])[*:1]; CO(CH2CH2O)9CH2CH2CO = O=C(CCOCCOCCOCCOCCOCCOCCOCCOCCOCCC(=O)[*:2])[*:1]; PEG12 = NCCOCCOCCOCCOCCOCCOCCOCCOCCOCCOCCOCCOCCC(=O)O; NMeF = CN[C@@H](Cc1ccccc1)C(=O)O; Ahp(2) = CCCCC[C@H](N)C(=O)O; hLys = NCCCCC[C@H](N)C(=O)O; NMeC = CN[C@@H](CS)C(=O)O

Molecular target: human c-Met protein (human, UniProt P08581 25-1390)
Sequence (P08581 25-1390): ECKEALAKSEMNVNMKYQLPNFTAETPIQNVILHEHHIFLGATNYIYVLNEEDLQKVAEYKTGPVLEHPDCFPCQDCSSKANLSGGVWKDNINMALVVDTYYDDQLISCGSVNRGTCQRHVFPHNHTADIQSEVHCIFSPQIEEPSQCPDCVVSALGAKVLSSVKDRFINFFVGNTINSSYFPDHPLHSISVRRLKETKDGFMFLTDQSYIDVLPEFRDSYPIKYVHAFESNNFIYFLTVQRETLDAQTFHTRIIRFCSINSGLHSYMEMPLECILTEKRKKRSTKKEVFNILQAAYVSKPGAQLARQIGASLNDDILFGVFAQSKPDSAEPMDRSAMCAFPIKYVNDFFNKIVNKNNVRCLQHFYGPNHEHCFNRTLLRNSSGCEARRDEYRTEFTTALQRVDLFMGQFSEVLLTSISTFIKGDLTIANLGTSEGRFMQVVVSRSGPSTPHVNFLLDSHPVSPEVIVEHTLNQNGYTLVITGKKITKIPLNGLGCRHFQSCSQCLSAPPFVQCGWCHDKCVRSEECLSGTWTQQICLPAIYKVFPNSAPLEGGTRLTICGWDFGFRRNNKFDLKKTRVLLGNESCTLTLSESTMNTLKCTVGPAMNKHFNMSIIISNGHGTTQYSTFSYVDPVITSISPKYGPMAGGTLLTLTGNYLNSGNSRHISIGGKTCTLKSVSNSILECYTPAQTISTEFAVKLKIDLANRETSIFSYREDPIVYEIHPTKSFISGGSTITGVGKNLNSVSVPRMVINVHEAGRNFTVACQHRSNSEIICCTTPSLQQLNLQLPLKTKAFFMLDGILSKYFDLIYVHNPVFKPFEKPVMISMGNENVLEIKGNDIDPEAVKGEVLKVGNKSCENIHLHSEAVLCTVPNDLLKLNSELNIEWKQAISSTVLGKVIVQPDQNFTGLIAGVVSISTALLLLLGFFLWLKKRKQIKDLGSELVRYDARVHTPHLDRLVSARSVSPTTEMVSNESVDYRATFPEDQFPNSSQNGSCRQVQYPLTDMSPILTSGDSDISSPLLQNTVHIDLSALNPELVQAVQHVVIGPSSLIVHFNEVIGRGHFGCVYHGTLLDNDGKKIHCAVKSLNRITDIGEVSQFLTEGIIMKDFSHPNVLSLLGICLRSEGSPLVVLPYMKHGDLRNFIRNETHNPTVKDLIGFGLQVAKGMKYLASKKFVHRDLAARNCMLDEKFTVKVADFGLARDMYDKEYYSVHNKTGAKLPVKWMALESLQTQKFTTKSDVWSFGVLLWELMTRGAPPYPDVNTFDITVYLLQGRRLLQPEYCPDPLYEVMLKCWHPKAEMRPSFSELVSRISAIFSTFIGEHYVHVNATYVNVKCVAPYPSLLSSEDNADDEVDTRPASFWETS
Assay: cell-based or functional assay

Binder | C-Met Agonist Activity (C50; nM): phospho-c-Met AlphaLISA, A431 cells [nM]
GFs c-Met-0012-PEG12 dimer (peptide SEQ ID NO: 2, GFs_c-Met_0012p; linker SEQ ID NO: 35) (thioether I:N-I:15 (inferred); also: homodimer: two cyclic peptides joined by linker PEG12c-K-PEG12c, peptide C-terminus on linker) peptide: {CH2CO}-[NMeF]VYVS[NMeF]DDD[Ahp(2)]PRWS[NMeC] [PEG12]-Lys-[PEG12] | 0.76
Peptide complex No. 18 in Table 4 (peptide SEQ ID NO: 6, GFs_c-Met_0012_1p; linker SEQ ID NO: 35) (thioether I:N-I:15 (inferred); also: homodimer: two cyclic peptides joined by linker PEG12c-K-PEG12c, peptide C-terminus on linker) peptide: {CH2CO}-[NMeF]TYVS[NMeF]DDD[Ahp(2)]PRWS[NMeC] [PEG12]-Lys-[PEG12] | 1.31
Peptide complex No. 19 in Table 4 (peptide SEQ ID NO: 9, GFs_c-Met_0012_4p; linker SEQ ID NO: 35) (thioether I:N-I:15 (inferred); also: homodimer: two cyclic peptides joined by linker PEG12c-K-PEG12c, peptide C-terminus on linker) peptide: {CH2CO}-[NMeF]VAVS[NMeF]DDD[Ahp(2)]PRWS[NMeC] [PEG12]-Lys-[PEG12] | 1.22
Peptide complex No. 20 in Table 4 (peptide SEQ ID NO: 11, GFs_c-Met_0012_6p; linker SEQ ID NO: 35) (thioether I:N-I:15 (inferred); also: homodimer: two cyclic peptides joined by linker PEG12c-K-PEG12c, peptide C-terminus on linker) peptide: {CH2CO}-[NMeF]VYVS[NMeF]DPD[Ahp(2)]PRWS[NMeC] [PEG12]-Lys-[PEG12] | 2.22
Peptide complex No. 21 in Table 4 (peptide SEQ ID NO: 13, GFs_c-Met_0012_8p; linker SEQ ID NO: 35) (thioether I:N-I:15 (inferred); also: homodimer: two cyclic peptides joined by linker PEG12c-K-PEG12c, peptide C-terminus on linker) peptide: {CH2CO}-[NMeF]VYVS[NMeF]DDD[hLys]PRWS[NMeC] [PEG12]-Lys-[PEG12] | 2.17
Peptide complex No. 22 in Table 4 (peptide SEQ ID NO: 17, GFs_c-Met_0012_12p; linker SEQ ID NO: 35) (thioether I:N-I:15 (inferred); also: homodimer: two cyclic peptides joined by linker PEG12c-K-PEG12c, peptide C-terminus on linker) peptide: {CH2CO}-[NMeF]VYVS[NMeF]DDD[Ahp(2)]PRWA[NMeC] [PEG12]-Lys-[PEG12] | 2.37
Peptide complex No. 23 in Table 4 (peptide SEQ ID NO: 9, GFs_c-Met_0012_4p; linker SEQ ID NO: 38) (thioether I:N-I:15 (inferred); also: homodimer of two cyclic peptides joined by linker G-K-cPEG17c-K-G, peptide C-terminus on linker) peptide: {CH2CO}-[NMeF]VAVS[NMeF]DDD[Ahp(2)]PRWS[NMeC] GK[CO(CH2)2(OCH2CH2)17CO]KG | 0.91
Peptide complex No. 24 in Table 4 (peptide SEQ ID NO: 9, GFs_c-Met_0012_4p; linker SEQ ID NO: 36) (thioether I:N-I:15 (inferred); also: homodimer of two cyclic peptides joined by linker G-K-cPEG9c-K-G, peptide C-terminus on linker) peptide: {CH2CO}-[NMeF]VAVS[NMeF]DDD[Ahp(2)]PRWS[NMeC] GK[CO(CH2CH2O)9CH2CH2CO]KG | 1.27
Peptide complex No. 25 in Table 4 (peptide SEQ ID NO: 22, GFs_c-Met-00014295p; linker SEQ ID NO: 38) (thioether I:N-I:15 (inferred); also: homodimer of two cyclic peptides joined by linker G-K-cPEG17c-K-G, peptide C-terminus on linker) peptide: {CH2CO}-[NMeF]EAVS[NMeF]DSD[Ahp(2)]PRWA[NMeC] GK[CO(CH2)2(OCH2CH2)17CO]KG | 0.81
Peptide complex No. 26 in Table 4 (peptide SEQ ID NO: 22, GFs_c-Met-00014295p; linker SEQ ID NO: 36) (thioether I:N-I:15 (inferred); also: homodimer of two cyclic peptides joined by linker G-K-cPEG9c-K-G, peptide C-terminus on linker) peptide: {CH2CO}-[NMeF]EAVS[NMeF]DSD[Ahp(2)]PRWA[NMeC] GK[CO(CH2CH2O)9CH2CH2CO]KG | 0.75
Peptide complex No. 27 in Table 4 (peptide SEQ ID NO: 23, GFs_c-Met-00014298p; linker SEQ ID NO: 38) (thioether I:N-I:15 (inferred); also: homodimer of two cyclic peptides joined by linker G-K-cPEG17c-K-G, peptide C-terminus on linker) peptide: {CH2CO}-[NMeF]EAVS[NMeF]DPD[Ahp(2)]PRWA[NMeC] GK[CO(CH2)2(OCH2CH2)17CO]KG | 2.37
Peptide complex No. 28 in Table 4 (peptide SEQ ID NO: 23, GFs_c-Met-00014298p; linker SEQ ID NO: 36) (thioether I:N-I:15 (inferred); also: homodimer of two cyclic peptides joined by linker G-K-cPEG9c-K-G, peptide C-terminus on linker) peptide: {CH2CO}-[NMeF]EAVS[NMeF]DPD[Ahp(2)]PRWA[NMeC] GK[CO(CH2CH2O)9CH2CH2CO]KG | 1.24
Peptide complex No. 29 in Table 4 (peptide SEQ ID NO: 24, GFs_c-Met-00014301p; linker SEQ ID NO: 38) (thioether I:N-I:15 (inferred); also: homodimer of two cyclic peptides joined by linker G-K-cPEG17c-K-G, peptide C-terminus on linker) peptide: {CH2CO}-[NMeF]EAVS[NMeF]DPD[Ahp(2)]PRWS[NMeC] GK[CO(CH2)2(OCH2CH2)17CO]KG | 0.88
Peptide complex No. 30 in Table 4 (peptide SEQ ID NO: 24, GFs_c-Met-00014301p; linker SEQ ID NO: 36) (thioether I:N-I:15 (inferred); also: homodimer of two cyclic peptides joined by linker G-K-cPEG9c-K-G, peptide C-terminus on linker) peptide: {CH2CO}-[NMeF]EAVS[NMeF]DPD[Ahp(2)]PRWS[NMeC] GK[CO(CH2CH2O)9CH2CH2CO]KG | 0.81
Peptide complex No. 31 in Table 4 (peptide SEQ ID NO: 25, GFs_c-Met-00014296p; linker SEQ ID NO: 38) (thioether I:N-I:15 (inferred); also: homodimer of two cyclic peptides joined by linker G-K-cPEG17c-K-G, peptide C-terminus on linker) peptide: {CH2CO}-[NMeF]QAVS[NMeF]DSD[Ahp(2)]PRWA[NMeC] GK[CO(CH2)2(OCH2CH2)17CO]KG | 0.68
Peptide complex No. 32 in Table 4 (peptide SEQ ID NO: 25, GFs_c-Met-00014296p; linker SEQ ID NO: 36) (thioether I:N-I:15 (inferred); also: homodimer of two cyclic peptides joined by linker G-K-cPEG9c-K-G, peptide C-terminus on linker) peptide: {CH2CO}-[NMeF]QAVS[NMeF]DSD[Ahp(2)]PRWA[NMeC] GK[CO(CH2CH2O)9CH2CH2CO]KG | 0.61
Peptide complex No. 33 in Table 4 (peptide SEQ ID NO: 26, GFs_c-Met-00014299p; linker SEQ ID NO: 38) (thioether I:N-I:15 (inferred); also: homodimer of two cyclic peptides joined by linker G-K-cPEG17c-K-G, peptide C-terminus on linker) peptide: {CH2CO}-[NMeF]QAVS[NMeF]DPD[Ahp(2)]PRWA[NMeC] GK[CO(CH2)2(OCH2CH2)17CO]KG | 2.05
Peptide complex No. 34 in Table 4 (peptide SEQ ID NO: 26, GFs_c-Met-00014299p; linker SEQ ID NO: 36) (thioether I:N-I:15 (inferred); also: homodimer of two cyclic peptides joined by linker G-K-cPEG9c-K-G, peptide C-terminus on linker) peptide: {CH2CO}-[NMeF]QAVS[NMeF]DPD[Ahp(2)]PRWA[NMeC] GK[CO(CH2CH2O)9CH2CH2CO]KG | 1.26
Peptide complex No. 35 in Table 4 (peptide SEQ ID NO: 27, GFs_c-Met-00014302p; linker SEQ ID NO: 38) (thioether I:N-I:15 (inferred); also: homodimer of two cyclic peptides joined by linker G-K-cPEG17c-K-G, peptide C-terminus on linker) peptide: {CH2CO}-[NMeF]QAVS[NMeF]DPD[Ahp(2)]PRWS[NMeC] GK[CO(CH2)2(OCH2CH2)17CO]KG | 0.92
Peptide complex No. 36 in Table 4 (peptide SEQ ID NO: 27, GFs_c-Met-00014302p; linker SEQ ID NO: 36) (thioether I:N-I:15 (inferred); also: homodimer of two cyclic peptides joined by linker G-K-cPEG9c-K-G, peptide C-terminus on linker) peptide: {CH2CO}-[NMeF]QAVS[NMeF]DPD[Ahp(2)]PRWS[NMeC] GK[CO(CH2CH2O)9CH2CH2CO]KG | 0.73
Peptide complex No. 37 in Table 4 (peptide SEQ ID NO: 28, GFs_c-Met-00014303p; linker SEQ ID NO: 38) (thioether I:N-I:15 (inferred); also: homodimer of two cyclic peptides joined by linker G-K-cPEG17c-K-G, peptide C-terminus on linker) peptide: {CH2CO}-[NMeF]TRVS[NMeF]DSD[Ahp(2)]PRWS[NMeC] GK[CO(CH2)2(OCH2CH2)17CO]KG | 0.49
Peptide complex No. 38 in Table 4 (peptide SEQ ID NO: 28, GFs_c-Met-00014303p; linker SEQ ID NO: 36) (thioether I:N-I:15 (inferred); also: homodimer of two cyclic peptides joined by linker G-K-cPEG9c-K-G, peptide C-terminus on linker) peptide: {CH2CO}-[NMeF]TRVS[NMeF]DSD[Ahp(2)]PRWS[NMeC] GK[CO(CH2CH2O)9CH2CH2CO]KG | 0.65
Peptide complex No. 39 in Table 4 (peptide SEQ ID NO: 29, GFs_c-Met-00014306p; linker SEQ ID NO: 38) (thioether I:N-I:15 (inferred); also: homodimer of two cyclic peptides joined by linker G-K-cPEG17c-K-G, peptide C-terminus on linker) peptide: {CH2CO}-[NMeF]TAVSLDSD[Ahp(2)]PRWS[NMeC] GK[CO(CH2)2(OCH2CH2)17CO]KG | 1.44
